Laboratory results reported in US20090208538A1 (ROCKEFELLER UNIVERSITY, published 2009).

B1: cdr2-specific murine T cell receptor of CTL clones 11 and 12 (TCR, V domains shown)
V domain 1: QQQVRQSPQSLTVWEGGTTVLTCSYEDSTFNYFPWYQQFPGEGPALLISILSVSDKKEDGRFTTFFNKREKKLSLHIIDSQPGDSATYFCAASGASGGSNAKLTFGKGTKLSVKS
V domain 2: DSGVVQSPRHIIKEKGGRSVLTCIPISGHSNVVWYQQTLGKELKFLIQHYEKVERDKGFLPSRFSVQQFDDYHSEMNMSALELEDSAMYFCASSLGGWAEQFFGPGTRLTVLE

Molecular target: HLA-A*2402 (human)
Test: iTopia affinity

Row | Binder | ED50 [µM]
1 | SQSLLEEMF [cdr2 287-295 SQSLLEEMF] | 14
2 | QMLQSEHPF [cdr2 259-267 QMLQSEHPF] | 53
3 | SFACLKELY [cdr2 157-165 SFACLKELY] | 1.4
4 | KQRGISLLH [cdr2 339-347 KQRGISLLH] | 6.9
5 | AYRARALEL [cdr2 242-250 AYRARALEL] | 0.16
6 | AVKQRGISL [cdr2 337-345 AVKQRGISL] | 20
7 | HLKKTVTML [cdr2 197-205 HLKKTVTML] | 89

Molecular target: T1, HLA-A*0201 (human)
T1 construct: also called HLA-A2.1; HLA A2.1
Test: iTopia binding;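 also: each peptide tested for binding to HLA-A2 molecules immobilized on plates, using a commercial screening kit run per its supplied protocol and reagents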

Row | Binder | binding vs positive control [%]
8 | RQHFVYDHV [cdr2 168-176 RQHFVYDHV] | > 30
9 | LLHEVDTQY [cdr2 345-353 LLHEVDTQY] | > 30
10 | HLKKTVTML [cdr2 197-205 HLKKTVTML] | > 30
11 | ALFKEIFSC [cdr2 424-432 ALFKEIFSC] | > 30
12 | ASQQKILSL [cdr2 107-113 ASQQKILSL] | > 30
13 | LLEEMFLTV [cdr2 290-298 LLEEMFLTV] | > 30

Molecular target: HLA-B*0702 (human)
Test: iTopia off-rate

Row | Binder | t1/2
14 | AVQTSRAAA [cdr2 378-386 AVQTSRAAA] | 0.9
15 | AYRARALEL [cdr2 242-250 AYRARALEL] | 0.15
16 | AVKQRGISL [cdr2 337-345 AVKQRGISL] | 1.18
17 | HLKKTVTML [cdr2 197-205 HLKKTVTML] | 0.11
18 | RARALELEA [cdr2 244-252 RARALELEA] | 0.47

Molecular target: HLA-A2.1/cdr2(290-298) complex (human)
Test: cell-based or functional assay

Row | Binder | IFN-γ release, ELISA [fold above background]
19 | B1 | 20

Molecular target: T1, HLA-A*0201
Test: iTopia affinity

Row | Binder | ED50 [µM]
20 | RQHFVYDHV [cdr2 168-176 RQHFVYDHV] | 6
21 | LLHEVDTQY [cdr2 345-353 LLHEVDTQY] | 7
22 | HLKKTVTML [cdr2 197-205 HLKKTVTML] | 10
23 | ALFKEIFSC [cdr2 424-432 ALFKEIFSC] | 30
24 | ASQQKILSL [cdr2 107-113 ASQQKILSL] | 8
25 | LLEEMFLTV [cdr2 290-298 LLEEMFLTV] | 0.6

Molecular target: HLA-A*1101 (human)
Test: iTopia affinity

Row | Binder | ED50 [µM]
26 | KQRGISLLH [cdr2 339-347 KQRGISLLH] | 22
27 | TQYSALKVK [cdr2 351-359 TQYSALKVK] | 2.8
28 | ASQQKILSL [cdr2 107-113 ASQQKILSL] | 20

Molecular target: HLA-A*0101 (human)
Test: iTopia off-rate

Row | Binder | t1/2
29 | SSPTTPPEY [cdr2 414-422 SSPTTPPEY] | 0.96
30 | SFACLKELY [cdr2 157-165 SFACLKELY] | 0.97
31 | DTQYSALKV [cdr2 350-358 DTQYSALKV] | 0.4
32 | EIDEQRTKY [cdr2 439-447 EIDEQRTKY] | 1.26
33 | LLEEMFLTV [cdr2 290-298 LLEEMFLTV] | 0.27

Molecular target: T2, HLA-A*1501 (human)
T2 construct: possibly meant as HLA-B*1501
Test: iTopia affinity

Row | Binder | ED50 [µM]
34 | SQSLLEEMF [cdr2 287-295 SQSLLEEMF] | 29
35 | QMLQSEHPF [cdr2 259-267 QMLQSEHPF] | 8.3
36 | RQHFVYDHV [cdr2 168-176 RQHFVYDHV] | 39
37 | SFACLKELY [cdr2 157-165 SFACLKELY] | 5.3
38 | KQRGISLLH [cdr2 339-347 KQRGISLLH] | 22
39 | AVQTSRAAA [cdr2 378-386 AVQTSRAAA] | 51
40 | LLHEVDTQY [cdr2 345-353 LLHEVDTQY] | 39
41 | AVKQRGISL [cdr2 337-345 AVKQRGISL] | 15
42 | TQYSALKVK [cdr2 351-359 TQYSALKVK] | 7.6
43 | RARALELEA [cdr2 244-252 RARALELEA] | 48
44 | ALFKEIFSC [cdr2 424-432 ALFKEIFSC] | 8.3
45 | ASQQKILSL [cdr2 107-113 ASQQKILSL] | 24

Molecular target: HLA-A*0301 (human)
Test: iTopia affinity

Row | Binder | ED50 [µM]
46 | TQYSALKVK [cdr2 351-359 TQYSALKVK] | 7.5

Molecular target: T1, HLA-A*0201
Test: iTopia net score

Row | Binder | iScore
47 | RQHFVYDHV [cdr2 168-176 RQHFVYDHV] | 0.304
48 | LLHEVDTQY [cdr2 345-353 LLHEVDTQY] | 0.204
49 | HLKKTVTML [cdr2 197-205 HLKKTVTML] | 0.199
50 | ALFKEIFSC [cdr2 424-432 ALFKEIFSC] | 0.546
51 | ASQQKILSL [cdr2 107-113 ASQQKILSL] | 0.174
52 | LLEEMFLTV [cdr2 290-298 LLEEMFLTV] | 0.815

Molecular target: HLA-A*2402 (human)
Test: iTopia off-rate

Row | Binder | t1/2
53 | SQSLLEEMF [cdr2 287-295 SQSLLEEMF] | 0.24
54 | QMLQSEHPF [cdr2 259-267 QMLQSEHPF] | 0.25
55 | SFACLKELY [cdr2 157-165 SFACLKELY] | 0.5
56 | KQRGISLLH [cdr2 339-347 KQRGISLLH] | 1.52
57 | AYRARALEL [cdr2 242-250 AYRARALEL] | 1.11
58 | AVKQRGISL [cdr2 337-345 AVKQRGISL] | 1.6
59 | HLKKTVTML [cdr2 197-205 HLKKTVTML] | 0.8

Molecular target: HLA-A*0301 (human)
Test: iTopia off-rate

Row | Binder | t1/2
60 | TQYSALKVK [cdr2 351-359 TQYSALKVK] | 1.48

Molecular target: HLA-B*0702 (human)
Test: iTopia affinity

Row | Binder | ED50 [µM]
61 | AVQTSRAAA [cdr2 378-386 AVQTSRAAA] | 11
62 | AYRARALEL [cdr2 242-250 AYRARALEL] | 23
63 | AVKQRGISL [cdr2 337-345 AVKQRGISL] | 2.4
64 | HLKKTVTML [cdr2 197-205 HLKKTVTML] | 99
65 | RARALELEA [cdr2 244-252 RARALELEA] | 14

Molecular target: T1, HLA-A*0201
Test: iTopia off-rate

Row | Binder | t1/2
66 | RQHFVYDHV [cdr2 168-176 RQHFVYDHV] | 3.7
67 | LLHEVDTQY [cdr2 345-353 LLHEVDTQY] | 3.5
68 | HLKKTVTML [cdr2 197-205 HLKKTVTML] | 2.5
69 | ALFKEIFSC [cdr2 424-432 ALFKEIFSC] | 18.7
70 | ASQQKILSL [cdr2 107-113 ASQQKILSL] | 3.4
71 | LLEEMFLTV [cdr2 290-298 LLEEMFLTV] | 5.9

Molecular target: HLA-B*0702 (human)
Test: iTopia net score

Row | Binder | iScore
72 | AVQTSRAAA [cdr2 378-386 AVQTSRAAA] | 0.153
73 | AYRARALEL [cdr2 242-250 AYRARALEL] | 0.033
74 | AVKQRGISL [cdr2 337-345 AVKQRGISL] | 0.293
75 | HLKKTVTML [cdr2 197-205 HLKKTVTML] | 0.022
76 | RARALELEA [cdr2 244-252 RARALELEA] | 0.08

Molecular target: T2, HLA-A*1501
Test: iTopia net score

Row | Binder | iScore
77 | SQSLLEEMF [cdr2 287-295 SQSLLEEMF] | 0.062
78 | QMLQSEHPF [cdr2 259-267 QMLQSEHPF] | 0.257
79 | RQHFVYDHV [cdr2 168-176 RQHFVYDHV] | 0.088
80 | SFACLKELY [cdr2 157-165 SFACLKELY] | 0.132
81 | KQRGISLLH [cdr2 339-347 KQRGISLLH] | 0.163
82 | AVQTSRAAA [cdr2 378-386 AVQTSRAAA] | 0.062
83 | LLHEVDTQY [cdr2 345-353 LLHEVDTQY] | 0.121
84 | AVKQRGISL [cdr2 337-345 AVKQRGISL] | 0.16
85 | TQYSALKVK [cdr2 351-359 TQYSALKVK] | 0.181
86 | RARALELEA [cdr2 244-252 RARALELEA] | 0.118
87 | ALFKEIFSC [cdr2 424-432 ALFKEIFSC] | 0.053
88 | ASQQKILSL [cdr2 107-113 ASQQKILSL] | 0.092

Molecular target: HLA-B*0801 (human)
Test: iTopia affinity

Row | Binder | ED50 [µM]
89 | AYRARALEL [cdr2 242-250 AYRARALEL] | 26
90 | AVKQRGISL [cdr2 337-345 AVKQRGISL] | 22
91 | HLKKTVTML [cdr2 197-205 HLKKTVTML] | 37

Molecular target: HLA-A*0301 (human)
Test: iTopia net score

Row | Binder | iScore
92 | TQYSALKVK [cdr2 351-359 TQYSALKVK] | 0.27

Molecular target: HLA-B*0801 (human)
Test: iTopia net score

Row | Binder | iScore
93 | AYRARALEL [cdr2 242-250 AYRARALEL] | 0.066
94 | AVKQRGISL [cdr2 337-345 AVKQRGISL] | 0.139
95 | HLKKTVTML [cdr2 197-205 HLKKTVTML] | 0.123

Molecular target: HLA-A*2402 (human)
Test: iTopia net score

Row | Binder | iScore
96 | SQSLLEEMF [cdr2 287-295 SQSLLEEMF] | 0.048
97 | QMLQSEHPF [cdr2 259-267 QMLQSEHPF] | 0.082
98 | SFACLKELY [cdr2 157-165 SFACLKELY] | 0.157
99 | KQRGISLLH [cdr2 339-347 KQRGISLLH] | 0.184
100 | AYRARALEL [cdr2 242-250 AYRARALEL] | 0.611
101 | AVKQRGISL [cdr2 337-345 AVKQRGISL] | 0.13
102 | HLKKTVTML [cdr2 197-205 HLKKTVTML] | 0.075

Molecular target: HLA-A*1101 (human)
Test: iTopia off-rate

Row | Binder | t1/2
103 | KQRGISLLH [cdr2 339-347 KQRGISLLH] | 0.44
104 | TQYSALKVK [cdr2 351-359 TQYSALKVK] | 0.76
105 | ASQQKILSL [cdr2 107-113 ASQQKILSL] | 2.45

Molecular target: HLA-A*1101 (human)
Test: iTopia net score

Row | Binder | iScore
106 | KQRGISLLH [cdr2 339-347 KQRGISLLH] | 0.089
107 | TQYSALKVK [cdr2 351-359 TQYSALKVK] | 0.276
108 | ASQQKILSL [cdr2 107-113 ASQQKILSL] | 0.19

Molecular target: HLA-A*0101 (human)
Test: iTopia net score

Row | Binder | iScore
109 | SSPTTPPEY [cdr2 414-422 SSPTTPPEY] | 0.05
110 | SFACLKELY [cdr2 157-165 SFACLKELY] | 0.137
111 | DTQYSALKV [cdr2 350-358 DTQYSALKV] | 0.04
112 | EIDEQRTKY [cdr2 439-447 EIDEQRTKY] | 0.107
113 | LLEEMFLTV [cdr2 290-298 LLEEMFLTV] | 0.063

Molecular target: HLA-A*0101 (human)
Test: iTopia affinity

Row | Binder | ED50 [µM]
114 | SSPTTPPEY [cdr2 414-422 SSPTTPPEY] | 130
115 | SFACLKELY [cdr2 157-165 SFACLKELY] | 6.9
116 | DTQYSALKV [cdr2 350-358 DTQYSALKV] | 49
117 | EIDEQRTKY [cdr2 439-447 EIDEQRTKY] | 31
118 | LLEEMFLTV [cdr2 290-298 LLEEMFLTV] | 21
